Target: Man9-V3 glycopeptide (HIV-1 (clade B JRFL mini-V3))
Assay: BLI, biotinylated peptide on streptavidin sensor, bivalent avidity model

DH270.1 (antibody)
Kd: 331 nM
